Drawing on the supplement of paper PMC12042874, this text covers amyloid nucleation score for 103 substances.

± gives the uncertainty stated by the source.

The data set is described as follows: amyloid nucleation score (Sup35N fusion, yeast selection) (log enrichment); library NNK1; higher = more nucleation; inactive = no reads after selection. In short, it runs like this:
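Output and input plasmid inserts were sequenced by Illumina after psi-negative yeast carrying Sup35N fused to peptides of 20 random codons had been induced 24 hours with 100 μM copper sulfate and grown 7 days at 30°C on medium lacking adenine and uracil. The nucleation score is the DiMSum log enrichment of output over input reads, centred on the mode score of non-aggregating sequences. Sequences with under 100 input reads were excluded.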
On to ARGTGGSKAAPNYLVYTGCR, for which the amyloid nucleation score came out at 0.684 ± 0.48.

Regarding ARGYAGVRRLVGYR, the amyloid nucleation score is 0.133 ± 0.56. The substance ARGYPLTYKYQVSRGSRLTL registered an amyloid nucleation score of 0.439 ± 0.4.

Turning to ARMASHRTCLNVYLRLCAYL, the amyloid nucleation score was -0.343 ± 0.31. For the substance ARSCVLNLVPGFSPSFGT, the amyloid nucleation score is -0.426 ± 0.52. Substance ARWKKQWFYT returned an amyloid nucleation score of 0.796 ± 0.58. ASAWGLGYEFPWSRSYSAKT displayed an amyloid nucleation score of -0.209 ± 0.9. Consider ASFVSLVSAPESFNGFAVQN, for which the amyloid nucleation score was -0.006 ± 0.48. For ASIYMLRFMDLT, the amyloid nucleation score was -0.244 ± 0.71. As to ASLAIGFSIKSHYVMCRVYP, the amyloid nucleation score was determined as 0.42 ± 0.35. In turn, ASMPAFAT yielded an amyloid nucleation score of 0.413 ± 0.72.

Regarding ASMWSWRYHMEAINSTKAEA, the amyloid nucleation score is -0.745 ± 2.4.

Consider ASNAARLLPDRISGSEAF, for which the amyloid nucleation score came out at 0.591 ± 0.71. The figure for ASRMFMSFLYYSMLLWLLNV is -1.66 ± 0.85; for ASRSCIVSRRASGPHVCCQV it is 0.098 ± 0.91.

ASRYGDF registered an amyloid nucleation score of 0.555 ± 0.42. As for ATQNLKY, the figure is 0.824 ± 0.79. Regarding AVCVMWANGLVYMTSLECER, the amyloid nucleation score was -0.679 ± 0.35. As to AVCVPVSKDGPVKGKFINKY, the amyloid nucleation score stood at 0.329 ± 0.41. The figure for AVELAKSPLWIPKLGYVMNQ is 0.233 ± 0.48; for AVFDSKLFLQSWVASTGIRV it is “inactive”. For AVFGTIIESFMSGG, the amyloid nucleation score worked out at 0.399 ± 0.34. Regarding AVFLVRAPSTRGLARMVDLA, the amyloid nucleation score result is “inactive”. Substance AVGGDSMYSLQSGYKLILAS showed an amyloid nucleation score of 0.288 ± 0.35. AVGRPPIRYRNTHSISTDSE: the amyloid nucleation score worked out at 0.565 ± 0.31. As to AVLNFIQVVVVVEVVGCYQH, the amyloid nucleation score stood at 2.68 ± 0.28. On to AVSIRCFGRMMTLSGSKIAG, for which the amyloid nucleation score is 0.838 ± 0.25.

AWGRLAGYRRGSWMYYCCNS: the amyloid nucleation score was determined as 0.435 ± 0.82.

In the case of AWILRWKEIPMEYSLSS, the amyloid nucleation score is 0.202 ± 0.56.

AWNCHKFND returned an amyloid nucleation score of 0.668 ± 0.78. In turn, AWQRVSVKFELGDIGPEGLY had an amyloid nucleation score of -0.668 ± 0.31. As to AYEGKGITGHLIFSWKSKSL, the amyloid nucleation score worked out at 1.55 ± 0.13. Regarding AYFMGHCLKGPRVTLVGCKT, the amyloid nucleation score turned out to be 0.525 ± 0.65. The figure for AYGKRTNTRICDNKTLGVSS is -0.745 ± 2.4; for AYHNDWR it is -0.85 ± 0.76; for AYIDKMCTPYNKGRLLMHWY it is 1.97 ± 0.48. The substance AYIVNIELGNRTS showed an amyloid nucleation score of 7.04 ± 0.056.

Substance AYNAECSVWSRRCSIAVMDL registered an amyloid nucleation score of 0.757 ± 0.58. The substance AYNDSAVGRAGGLFVVGLFV displayed an amyloid nucleation score of -0.51 ± 0.58. Substance AYSSARHFFTLTFKEIRFGR registered an amyloid nucleation score of 0.141 ± 1.4.

The substance AYWSGTYEGEWYLVDRQFYW yielded an amyloid nucleation score of 0.542 ± 1. The figure for AYYSRNIIKPGKKVEVPKMG is -1.01 ± 0.72.

In turn, CAFCI displayed an amyloid nucleation score of -0.766 ± 1. With CAHIY, the amyloid nucleation score was -0.747 ± 0.99. CAKGCCD gave an amyloid nucleation score of -0.344 ± 0.72. For the substance CALAIRIVCS, the amyloid nucleation score result was “inactive”.

In turn, CASRFMCGPTINKWVR came in with an amyloid nucleation score of -1.02 ± 1.1. For the substance CAYVVVLLCSVLVDAGYVCR, the amyloid nucleation score turned out to be 1.94 ± 0.17.

Substance CCADPMHYTFHSSNLVFPLM came in with an amyloid nucleation score of 0.294 ± 0.37.

Substance CCERGWS returned an amyloid nucleation score of 0.156 ± 0.72. Regarding CDGVMKSGVKKMSTSRDWFM, the amyloid nucleation score entry was “inactive”. As for CDIIYFACGDREV, the entry is “inactive”; as for CDLLRSLTVS, 0.946 ± 0.6; as for CDNSLDSIWFVSVSWN, 1.16 ± 0.69. The substance CDVLFGLLSLRYLPSSLRIG came in with an amyloid nucleation score of -0.434 ± 0.48. Take CFCPSKGDTDRLWAHFSARF: the amyloid nucleation score was -0.093 ± 0.45. As for CFFEILLSMISTMPRNVKLR, the figure is -0.28 ± 0.41; as for CFFMEFYVPNSIIIYVRTPV, -1.89 ± 0.96; as for CFINSDVMVLLVTTYHYS, 7.321 ± 0.071.

Turning to CFRYVCIILMSVLMNYNFVY, the amyloid nucleation score was -0.05 ± 0.2. Take CFSLLNYSCFSCIDLFHPLY: the amyloid nucleation score was determined as 5.23 ± 0.084. The figure for CFSMILVYYVLFARFVSWSM is 0.15 ± 0.41; for CFVVHMSKEFYGRYFVRRIN it is “inactive”. Turning to CGDMKRSHGCYFGPRNRFCW, the amyloid nucleation score worked out at 0.517 ± 0.47. As for CGFALSRQVDILILLADSYD, the amyloid nucleation score worked out at 0.167 ± 1.1. Regarding CGHMR, the amyloid nucleation score worked out at 0.327 ± 0.33. With CGIING, the amyloid nucleation score was -1.08 ± 1.7. CGLKNFGVLSFRSIDCQRKG registered an amyloid nucleation score of -1.48 ± 1.1. For the substance CGLLVVLRANVFILCGYK, the amyloid nucleation score is 0.399 ± 0.24. The substance CGSRVDGSCTAGTSIWVVDV had an amyloid nucleation score of 0.528 ± 0.66. The substance CGWSSMIVP gave an amyloid nucleation score of 0.343 ± 0.63. CHNVVGSVKRIRSKFMKCFV: the amyloid nucleation score result is “inactive”.

In turn, CHYGDPSGWGQLTPSTWTGE registered an amyloid nucleation score of 0.573 ± 0.42. As to CIFFVNTGHGYLWQDYAHSN, the amyloid nucleation score was determined as 3.58 ± 0.15. Regarding CISLFFVKCGRQAAHPQSRR, the amyloid nucleation score is 8.295 ± 0.062. The figure for CITFMVRYGLRLHR is 0.089 ± 0.58; for CIVYFSCLMYHWILDC it is 0.422 ± 0.65.

With CIWQWVKDNDDNKVAS, the amyloid nucleation score was -1.04 ± 0.46. CIYELRGLVRFWSHRVNRER had an amyloid nucleation score of -0.445 ± 0.45. Take CKGFK: the amyloid nucleation score result was “inactive”. The substance CKSESRFLFAYNSLCLKSMG registered an amyloid nucleation score of -0.043 ± 0.3. With CKTLMLCTRICFDANQLASR, the amyloid nucleation score is 1.71 ± 0.78.

Regarding CLAGLYNCGGR, the amyloid nucleation score turned out to be 0.679 ± 0.65. As for CLATLSMSYLLFVSGLRRIK, the figure is -0.554 ± 0.59; as for CLDMVWDLTVMFMF, 1.11 ± 0.19. As for CLEVFKNGCRNLRTGRVINR, the amyloid nucleation score came to 1.03 ± 0.9. The entry for CLFDATVLNVLYQEIAEPRR is “inactive”.

The substance CLGHISVMNVTASNANYHFS showed an amyloid nucleation score of 7.237 ± 0.053. CLIRIVKF had an amyloid nucleation score of 1.08 ± 0.7. As for CLIVKRIFFYLNYHKKVELL, the amyloid nucleation score was -0.573 ± 1.4. Substance CLIYYVYSRWIIPMYITGRR came in with an amyloid nucleation score of -0.27 ± 0.81. CLNGMQPHKWFGMCVWVCPC returned an amyloid nucleation score of -0.212 ± 0.58. On to CLQCKCYNNCVQLRVTVGCM, for which the amyloid nucleation score was determined as 1.37 ± 0.52. The figure for CLSDGTMAFPCPGRQDVRTV is -0.015 ± 0.34; for CLSSSH it is -0.322 ± 0.38; for CLSYI it is -0.172 ± 0.27.

Turning to CLTKEYVRGFLNPGRHRTRQ, the amyloid nucleation score is -0.271 ± 0.36.

CLVERATITHFASCVEAYFY registered an amyloid nucleation score of -0.224 ± 1.4. On to CMGPYFSGMSEFRGTLSVHA, for which the amyloid nucleation score was -0.491 ± 1.9.

In the case of CMLREPKRKYPVKIMCSLLV, the amyloid nucleation score entry was “inactive”.

In turn, CMSLYRGFLTPEWNIFVWLA had an amyloid nucleation score of 0.514 ± 0.61. Substance CMSVVNLRCPDRTLVSLLPY gave an amyloid nucleation score of -0.326 ± 1.1. As for CMVMFCCWNMWVDSVH, the figure is 7.237 ± 0.069.
